No end group written: not given here.
tested on: purified I-A^g7; experiment: not given; conditions: cited from earlier work

Row | Substance | direct binding to purified I-A^g7
1 | HEL 11–25: HEL peptide tested by Carrasco-Marin et al. (AMKRHGLDNYRGYSL; UniProt P00698 29-43, looked up, fragment) | unable to demonstrate direct binding

target: I-A^g7 (mouse (NOD; endogenous in 4G4.7 hybridoma)); experiment: ELISA; conditions: not given

Row | IC50 [µM] | Substance
2 | 0.35 | HEL 9–27 (peptide)
3 | 1 to 10 | HEL 10–22 Y20M (peptide)
4 | 0.35 | HEL 10–22 R21K (peptide)
5 | 0.25 | HEL 12–23 (peptide)
6 | 0.3 | HEL 10–22 D18P (peptide)
7 | 0.35 | HEL 10–22 A11Y (peptide)
8 | 0.2 | HEL 10–22 D18Q (peptide)
9 | 1 to 10 | HEL 10–22 R14S (peptide)
10 | < 1 | HEL 10–22 N19G (peptide)
11 | 0.25 | HEL 13–22 (peptide)
12 | > 50 | HEL 17–27 (peptide)
13 | 2 | HEL 14–27 (peptide)
14 | 1 to 10 | HEL 10–22 L17T (peptide)
15 | 1 to 10 | HEL 10–22 N19R (peptide)
16 | 1 to 10 | HEL 10–22 Y20N (peptide)
17 | < 1 | HEL 10–22 D18R (peptide)
18 | < 1 | HEL 10–22 N19S (peptide)
19 | < 1 | HEL 10–22 L17V (peptide)
20 | 1 to 10 | HEL 10–22 N19E (peptide)
21 | 2 | HEL 10–22 Y20Q (peptide)
22 | 0.3 | HEL 10–22 R21Y (peptide)
23 | 1.75 | HEL 10–22 H15D (peptide)
24 | 1 | human proinsulin 49–63 (peptide)
25 | 1 to 10 | HEL 10–22 R14W (peptide)

Row | IC50 [µM] | Substance
26 | 1 | human proinsulin 21–35 (peptide)
27 | 0.25 | HEL 10–22 K13Y (peptide)
28 | < 1 | HEL 10–22 L17I (peptide)
29 | 0.3 | HEL 9–21 (peptide)
30 | 0.3 | HEL 10–22 H15A (peptide)
31 | 1 to 10 | HEL 10–22 Y20W (peptide)
32 | < 1 | HEL 10–22 Y20R (peptide)
33 | 0.65 | HEL 10–22 G22P (peptide)
34 | 0.35 | HEL 10–22 G22A (peptide)
35 | 0.3 | HEL 10–22 K13A (peptide)
36 | > 50 | HEL 19–27 (peptide)
37 | 1 | human proinsulin 9–23 (peptide)
38 | 2 | HEL 10–22 G16D (peptide)
39 | 0.3 | HEL 12–27 (peptide)
40 | 0.1 | HEL 10–22 D18Y (peptide)
41 | > 50 | HEL 18–27 (peptide)
42 | 0.3 | HEL 10–22 A10L (peptide)
43 | 1 to 10 | HEL 10–22 L17F (peptide)
44 | 1 to 10 | HEL 10–22 L17H (peptide)
45 | 0.35 | HEL 10–22 R21P (peptide)
46 | 2 | HEL 10–22 N19Q (peptide)
47 | < 1 | HEL 10–22 D18E (peptide)
48 | 0.295 | HEL 10–23 (peptide)
49 | > 50 | HEL 10–22 N19Y (peptide)

Row | IC50 [µM] | Substance
50 | 0.3 | HEL 9–22 (peptide)
51 | 1 to 10 | HEL 10–22 L17N (peptide)
52 | 2 | HEL 10–22 N19D (peptide)
53 | 1 | human proinsulin 25–39 (peptide)
54 | 0.2 | HEL 9–24 (peptide)
55 | > 50 | HEL 9–17 (peptide)
56 | 1 to 10 | HEL 10–22 Y20H (peptide)
57 | 0.3 | HEL 10–27 (peptide)
58 | 0.3 | HEL 10–22 G22Y (peptide)
59 | < 1 | HEL 10–22 L17M (peptide)
60 | 0.3 | HEL 9–25 (peptide)
61 | 0.295 | HEL 10–22 (peptide)
62 | 30 | human proinsulin 5–19 (peptide)
63 | < 1 | HEL 10–22 Y20F (peptide)
64 | 0.3 | HEL 13–27 (peptide)
65 | 1 to 10 | HEL 10–22 N19F (peptide)
66 | 0.3 | HEL 9–26 (peptide)
67 | 0.3 | HEL 10–22 R14A (peptide)
68 | 0.2 | HEL 13–23 (peptide)
69 | 1 to 10 | HEL 10–22 R14G (peptide)
70 | 0.3 | HEL 11–27 (peptide)
71 | > 50 | HEL 16–27 (peptide)

target: T1, purified I-A^g7 (Mus musculus, UniProt P04228+Q31135); experiment: biochemical; assay type: binding, NOD mouse; conditions: not given
T1 sequence (P04228 24-256): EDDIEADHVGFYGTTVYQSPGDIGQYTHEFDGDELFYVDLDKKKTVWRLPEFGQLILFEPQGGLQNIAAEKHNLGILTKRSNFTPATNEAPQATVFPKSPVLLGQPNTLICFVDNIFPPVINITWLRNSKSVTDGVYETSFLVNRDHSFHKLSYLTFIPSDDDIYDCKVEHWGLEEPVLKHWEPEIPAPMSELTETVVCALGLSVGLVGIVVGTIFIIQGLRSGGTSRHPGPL
T1 sequence (Q31135 1-263): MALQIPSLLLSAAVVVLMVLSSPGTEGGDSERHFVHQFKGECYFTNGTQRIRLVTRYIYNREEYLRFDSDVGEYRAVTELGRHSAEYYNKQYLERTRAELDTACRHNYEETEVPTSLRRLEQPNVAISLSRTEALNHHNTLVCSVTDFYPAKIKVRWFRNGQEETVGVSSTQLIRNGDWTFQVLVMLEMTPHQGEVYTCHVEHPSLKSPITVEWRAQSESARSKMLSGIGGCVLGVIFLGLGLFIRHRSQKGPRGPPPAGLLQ

Row | Substance | IC50 [µM]
72 | KRHGLDNYRGY-NH2 [HEL 13–23] | 0.2
73 | MKRHGLDNYRGYSLGN-NH2 [HEL 12–27] | 0.3
74 | MKRHGLDNYRGY-NH2 [HEL 12–23] | 0.25
75 | AAAMKRHGLDNYRGYSLGN-NH2 [HEL 9–27] | 0.35
76 | KRHGLDNYRG-NH2 [HEL 13–22] | 0.25
77 | KRHGLDNYRGYSLGN-NH2 [HEL 13–27] | 0.3
78 | AAAMKRHGLDNYRG-NH2 [HEL 9–22] | 0.3
79 | AAMKRHGLDNYRGYSLGN-NH2 [HEL 10–27] | 0.3
80 | AAAMKRHGLDNYRGYSLG-NH2 [HEL 9–26] | 0.3
81 | AAAMKRHGLDNYR-NH2 [HEL 9–21] | 0.3
82 | AAAMKRHGLDNYRGYS-NH2 [HEL 9–24] | 0.2
83 | AMKRHGLDNYRGYSLGN-NH2 [HEL 11–27] | 0.3
84 | RHGLDNYRGYSLGN-NH2 [HEL 14–27] | 2
85 | HGLDNYRGYSLGN-NH2 [HEL 15–27] | 20
86 | AAAMKRHGLDNYRGYSL-NH2 [HEL 9–25] | 0.3

tested on: purified I-A^g7; experiment: biochemical; assay type: binding, NOD mouse; conditions: not given

Row | Substance | binding to I-A^g7 (in words)
87 | KPKATAEQLKTVMDD [In serum albumin (560–574), reference compound] | did not bind

Reference: paper PMC2196246 (The Journal of Experimental Medicine, 1997)
